In test [1] the target is gelatinase A (MMP-2) (Homo sapiens (Human), UniProt P08253). Description: enzyme inhibition kinetics, Ki(app), as in Example 1.
Test [2] addresses full-length collagenase 1 (MMP-1) (Homo sapiens (Human), UniProt P03956). The description is as above.
Test [3] has as its target T1, ADAMTS-5 (Homo sapiens (Human), UniProt Q9UNA0).
T1 sequence: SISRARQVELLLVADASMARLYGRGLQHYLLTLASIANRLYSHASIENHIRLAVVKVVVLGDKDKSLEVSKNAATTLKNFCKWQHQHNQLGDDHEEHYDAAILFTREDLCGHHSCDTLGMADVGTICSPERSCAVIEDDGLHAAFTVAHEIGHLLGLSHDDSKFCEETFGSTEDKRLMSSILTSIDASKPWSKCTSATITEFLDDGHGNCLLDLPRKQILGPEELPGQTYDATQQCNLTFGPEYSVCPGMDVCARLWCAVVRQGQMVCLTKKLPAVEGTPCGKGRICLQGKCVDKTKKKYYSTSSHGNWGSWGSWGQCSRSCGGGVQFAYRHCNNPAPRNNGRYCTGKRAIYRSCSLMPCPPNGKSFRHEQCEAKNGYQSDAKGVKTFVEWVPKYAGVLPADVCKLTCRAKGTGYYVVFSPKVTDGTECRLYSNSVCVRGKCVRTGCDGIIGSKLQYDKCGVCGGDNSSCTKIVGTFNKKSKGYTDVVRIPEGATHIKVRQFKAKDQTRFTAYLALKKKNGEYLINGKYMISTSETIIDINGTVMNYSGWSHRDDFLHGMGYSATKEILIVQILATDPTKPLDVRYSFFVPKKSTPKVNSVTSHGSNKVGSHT
Description: GST-IGD-FLAG substrate assay, Ki(app). Here is the method: (§1) Aggrecanase assays were carried out in 50 mM Tris HCl pH 7.5, 150 mM NaCl, 10 mM CaCl₂, 0.02% NaN₃, 0.05% Brij-35 at 37° C. When N-TIMP-3 was used, the inhibitor was preincubated with the enzyme for 1 hour. Reaction volumes were a total of 10 μl, consisting of 5 μl of GST-IGD-FLAG substrate (34 μM), and 5 μl of ADAMTS-4 or ADAMTS-5 (2 nM) with or without inhibitor. Enzyme amounts and incubation times were as indicated. Enzyme reactions were stopped at appropriate time points with the addition of 10 μl 2×SDS-PAGE samples loading buffer containing 20 mM EDTA. Reactions were then applied to a 10% SDS-PAGE analysis. Proteins were stained using Coomassie Brilliant Blue R-250. The stained gels were then scanned using a scanning densitometer (Biorad GS-710, Hemel Hempstead, UK) and the band intensity of the product (17 kDa) quantified using the 1D Phoretix quantification software (Nonlinear Dynamics, Newcastle upon Tyne, UK). Background subtraction was done using the rolling ball method, and band intensity expressed as pixel volumes.

Test [4] deals with T2, ADAMTS-4 (as used in Example 4; form not stated) (Homo sapiens (Human), UniProt O75173).
T2 sequence: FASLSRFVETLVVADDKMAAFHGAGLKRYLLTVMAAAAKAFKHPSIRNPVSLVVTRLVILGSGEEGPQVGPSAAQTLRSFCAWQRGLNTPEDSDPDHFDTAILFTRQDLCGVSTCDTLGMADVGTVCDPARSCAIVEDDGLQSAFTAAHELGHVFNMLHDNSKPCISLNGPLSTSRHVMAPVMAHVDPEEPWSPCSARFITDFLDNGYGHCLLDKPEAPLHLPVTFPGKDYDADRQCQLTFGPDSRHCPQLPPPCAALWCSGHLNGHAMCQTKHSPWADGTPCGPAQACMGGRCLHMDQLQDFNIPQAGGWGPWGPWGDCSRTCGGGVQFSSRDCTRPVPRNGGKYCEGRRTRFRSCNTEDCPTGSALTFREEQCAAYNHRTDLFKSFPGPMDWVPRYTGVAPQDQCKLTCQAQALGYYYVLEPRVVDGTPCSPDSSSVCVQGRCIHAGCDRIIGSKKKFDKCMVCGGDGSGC
Description: GST-IGD-FLAG substrate assay, Ki(app). The protocol:
as §1

B1: (-2A)N-TIMP-3 (other)
chain: AACTCSPSHPQDAFCNSDIVIRAKVVGKKLVKEGPFGTLVYTIKQMKMYRGFTKMPHVQYIHTEASESLCGLKLEVNKYQYLLTGRVYDGKMYTGLCNFVERWDQLTLSQRKGLNYRYHLGCN
Consider B1, for which the Ki was over 250 nM in test [1], over 500 nM in test [2], 1.4 nM in test [3] and 67 nM in test [4].

These data come from US20090318342A1, “Compounds” (IMPERIAL INNOVATIONS LIMITED, published 2009).
